# T1: Ser-PRLR (1-210) (UniProt P16471 25-234)
# T1 construct: range 1-210; also called PRL receptor; prolactin receptor
# T1 sequence: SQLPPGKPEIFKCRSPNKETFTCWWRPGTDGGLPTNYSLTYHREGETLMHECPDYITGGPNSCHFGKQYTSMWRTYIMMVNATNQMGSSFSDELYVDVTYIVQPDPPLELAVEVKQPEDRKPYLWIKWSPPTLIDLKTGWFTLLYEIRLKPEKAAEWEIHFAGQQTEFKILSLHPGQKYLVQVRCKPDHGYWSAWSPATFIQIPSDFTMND
# Biological target: T1, Ser-PRLR (1-210)
# Experiment: SPR (Biacore 3000): Ser-PRLR (1-210) amine-coupled to a CM5 chip, analogue injected at 500 nM
# Method: Ser-PRLR (1-210) (25 μg/ml in 10 mM sodium acetate, pH 3.0), was injected into a Biacore 3000 instrument at a flow rate of 5 μl/min and coupled to a CM5 sensor chip by amine coupling chemistry. […] Data evaluation was performed in BiaEvaluation 4.1. Regeneration was accomplished with 4.5 M MgCl₂ between runs.
# The PRL receptor binding affinity of G129R-PRL was compared to that of N56D,G129R-PRL (corresponding to the deamidated form of G129R-PRL), using the Biacore-assay. […] Thus, deamidation of […] markedly reduces the receptor binding affinity
row,Kd,Binder
1,27 nM,"G129R-PRL (ligand, also called G129R-hPRL) LPICPGGAARCQVTLRDLFDRAVVLSHYIHNLSSEMFSEFDKRYTHGRGFITKAINSCHTSSLATPEDKEQAQQMNQKDFLSLIVSILRSWNEPLYHLVTEVRGMQEAPEAILSKAVEIEEQTKRLLERMELIVSQVHPETKENEIYPVWSGLPSLQMADEESRLSAYYNLLHCLRRDSHKIDNYLKLLKCRIIHNNNC"
2,313 nM,"N56D,G129R-PRL (ligand, Recombinant mutant that mimics G129R-PRL deamidated at Asn-56; also called deamidated form of G129R-PRL) LPICPGGAARCQVTLRDLFDRAVVLSHYIHNLSSEMFSEFDKRYTHGRGFITKAIDSCHTSSLATPEDKEQAQQMNQKDFLSLIVSILRSWNEPLYHLVTEVRGMQEAPEAILSKAVEIEEQTKRLLERMELIVSQVHPETKENEIYPVWSGLPSLQMADEESRLSAYYNLLHCLRRDSHKIDNYLKLLKCRIIHNNNC"

# Reference: patent US20100292444A1 (published 2010)
